Key:
[1] = target: wild-type Shaker K+ channel with N-type inactivation removed (UniProt P08510); test: […]
[2] = target: 3/4V478W mutant Shaker concatemer channel; test: […]

Row | Molecule | Kd [1] [nM] | Kd [2] [nM]
1 | wild-type AgTx2 (from UniProt P46111 1-38) (peptide) | 2.5 | 
2 | GVPINVSCTGSPQCIKPCKDAGMRFGKCMNRKCHCTPK [wild-type AgTx2] |  | 9.2

From paper PMC5652298 (Nature structural & molecular biology, 2017)
